experiment: soluble fraction after stress (log2 fold change); higher = more stays soluble; pooled small domains, quantitative proteomics; conditions: stress: 50 degC
Summary of the method: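 Pooled custom libraries of small protein domains were each held under stress at 50°C. The read-out, high-throughput quantitative proteomics, tracked how much of each protein stayed soluble. This is reported as a base-two log fold change used to indicate aggregation propensity. Higher values mean more protein remains in solution.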

Row | Sequence | soluble fraction (log2)
1 | HMNAKKSTLQLDLLKQLLEGNKISLKDFSLSNEISIRTAQRYIEDLLEIFEKNIVKEGDFYSFIS | -2.3
2 | HMNDNTAINEFKKMVFTRMVHLQIDNAELSKLSGVTNSKILALKYGNSNTLKLGDIVKVAKTLNINLNDL | -2.7
3 | HMDKPGMRLNQFIAHSGISSRREADNLIKAGLVQVNGKIIVEMGFRVMPTDIVKFNNETIAS | -1.46
4 | HMTSLQDLLEELRVIRETLTGSQVLSDMQLFSQLRNLGDIKAALTRMQDNPAAARMVGEVDKLLETMFAS | -0.955
5 | HMNSIQEQIEKYVYSLAPVTIERYESLKNGDIEDIEFEKLRKSISSKIINEKIDNKKQVAILSHLKKMYSD | 0.0107
6 | HMELNFEGFYRFVRDELNVDLNAYKEKQLKRRIATVMKSSGALTLEDYSRLIANDEVIRNKFLDYITI | -1.08
7 | HMQKNKSVLFKDIVIAFNQNPKKLFNYKQLAADLDIHSEAERMLISQLLNDLKDQNFLEEVERGKYKLKL | 0.0237
8 | HMLDEKAVRQYLLNTLENSEIKMDRQAIDLFLRLTDLDLSKMMRELQKILLYGQEQEVITVKEIEQ | -0.856
9 | HMILNPQELGERIRKLRLKRNKTQSYFADMLYISSSYLALIESGKRVPNLDLLIHIAKFTDVTLDYLVFG | -1.22
10 | HMFDLDIEQIANDLKHGVMPNLYGLSLQDALYLLEAKGIRVKVAGSGSVVNQSIKTGAYVGSGSVLKLEL | -1.26
11 | HMGVITVRPPIVVRDFAIALNLKPFQVIGNLMELNKVVSVSSVIEEADARKVAERHGYTLEIRH | -0.516
12 | HMTPDGNATVWSANGYGVRLRTGPGKGYAIIGVYSVGTTVKVLERGPAGGWDHIQVGSRVGYMMNEFLHYY | -1.69
13 | HMVAESGLPPAFRSTWRHIMQTRGAQLDVLAMRTGTDAASLQKQLHAMELGGWVRRMPGGWYVPLK | -0.736
14 | HMRAVEGKRLKRLLRTNLIAIERDQILQYPLRKRPLAIVTRAVRATNPDAVIVNDAGDDVFARALDVLLAS | -1.34
15 | HMPKETFLNLDEEKRQAIINVLLKNFSEQHISQVKVSAIVSGIGMSRGAFYKYFEDLEDAYRFTISYFSA | -0.0102
16 | HMDDPEISQEQRQQLFRTAKEHFGASGNDVLKEILADHGRDSTVKMPVSVFAEIMGDLLKRALD | 0.432
17 | HMDITGIGIKKRIKAIIDSEDKKNPLSDTQIVEILKNEGLEISRRTVAKYRSDLQIPSSSKRKK | 0.403
18 | HMLSGGEVKRIEIATILARKSGLMIFDEPEAGIDLWSFARLVETFEDIRSNTSGSLVIISHQ | 0.00488
19 | HMDDVGYLRKRLQQALAQLSDDLRNTYTLFQIGKQSIKQIAAETGASESLVKVRIHRAKQKLQELLADLQ | -0.987
20 | HMDTIVHFLSDGRRITVRIKRNARKNIILRPMAADAVSATIPPWLGRRQLSAWLSEREDLLLSVLSRAA | -2.14
21 | HMPSYYKELQNYSPENPVVKKRKVHPDVVNAIKYLAEITDGNPMLIKAYAQMILAHVFTTMPLIDKSV | -0.128
22 | HMSRYQDIANDIEKDIIEKKYTRKLPEQFELAQKYQTSRVTIVHALKILQNKKLIRTVKGHGTFITS | -1.4
23 | HMLSSAAAIDRILAGGTAAMNHRQFDAALTSFNTVIEMRPDFAEGWNKRATLYYLIGEYERSIADVERTLA | 0.1
24 | HMKKPRKTSRKSIENAAIFYLQRFSSSIENLRRVLMRRVYRSAQYHNTKPEEDAKIVDSIIYRLIETGVL | -0.0617
25 | HMLGKEVVRAYNISYAIDDKGSLQGDLTAALTGLIPLSKPPVLDQRNRSLYVTATPEQHKDVAALLAKL | -0.171
26 | HMDWREMTAWMAELLKRRTGDDVETWNARVRESGAHDEASLRAWLTEQGVTGYAQTLLVMERFGYPDFF | -1.22
27 | HMQEIKPEPISDGRVWKEGMWATTPLGIEGQLLSDPDEKGMVQLGYGNMRININIQDLDPSR | -0.0705
28 | HMGSVNDNVQKLTSQIGETTETGDTITPEDVELYKKMVDPLSTMAQKLEAAEILKLKGIIGSNGIIV | -0.0442

Row | Sequence | soluble fraction (log2)
29 | HMSAEGPALADWVVRDAHSIGAKITNSVAQLLIDRVGHNQQLLHNELQKLALVQTDISAELVKTMSHY | 0.0302
30 | HMKRRSVIVSVVRAQVRQSADEAAAVVFEAEKNVSLDYLETMPGGWVKVRHRDGQTGFVRVNQIWG | -0.807
31 | HMKPGYVIQVNGTVTKIQSGLVYVKTPAAQYTLMRKYAPADAAVGDRVSLWINEEGMVIDVHGK | -0.0092
32 | HMKNEQIFIVRPDAEGTRLDQWLAAQMASSEEAPSRMQIQRWIKAGLVEGQGTLNPARRIEAGESYTVKPG | 0.0493
33 | HMLTTVAAQRAALHQEEDITKLREIILKLVPFWGLDGGAYADKETSIQLERQYRESFDQAVSAARRSGQA | -0.303
34 | HMQLASILDDIPGIGKKRKENLLTHFGSFSKIQSADIDALAEVPGISRDLAETIHTYLKTHQ | 0.0967
35 | HMGESYQIKDGELLVDIAQRVKPAGMTLRQTINALVAANPRAFRNGNPDLMYRGATLTIPDGDTLRRLAH | 0.131
36 | HMRPPLRAAIIDHLARDWHTVAELARLLPASGAHVSRLVVELRAVGAVDERISHPDWPGNRPTEYRLRRA | -3.58
37 | HMNTDVEKQKVFTALFDDYFRRNSMTSLEKQLFLTALKTNFQNAQKTVAKDHPYYATYSLIISAIENYR | 0.145
38 | HMNLNESVELGQELLSQALAQLGIRGELSPSTIDKLLAESSAKSMEELYADIGIGKRMPALVARHIFGLMD | -0.43
39 | HMEVPMELPRQLRANRERLGLSQEDVAHAIYVSRQTMSSWERGKTYPDVQSLMLLSHLFGISIDELVKGDV | -1.55
40 | HMQKLSPKQRRGNIIELIKENPTITAKNISTIFNLNQRTIERDLAKLTEEGYIKYEGSSKDGKWVFL | 0.087
41 | HMRASVTYVVQVNGKLRGKLEVAPDIDPEELKKLALEVENVKHSLQGWTVKKVIVIPGKMVSIAAGK | 0.0764
42 | HMTFFDDLLYQAKAAVDNDPSIKPSLHNRAIIEILYQQGVFNMKNAVEHVAELLEISKNTVYLHLRSVKG | -0.973
43 | HMNNTIKFFVSQDDDSTRLDVFLSKKIENLTRSNIKKFINLNNVKINKATINSPSKKVKLYDEIEIKFSS | -1.72
44 | HMADPLQLLEQQRQDYIQAVTEYLNSHPNAKPIWDVMKKDAGYGDMKLTDIPLGILKKLYITLT | -0.356
45 | HMFSPSDEDLELAHRQIRAFEEVEANGKSIAVVDGRIVESLHIVTARDTLEKAKAITALAEEM | 0.115
46 | HMEDELVMERFDINELVKSVVNANELRATQKNLSITYDILDTPLYVWADEYKVEEVVTNYLS | -0.143
47 | HMKWIEILKSKDGNYALLQDEKDTQFVVASGYNPDAAEDQKWGHGSYFIYWNNKENKAEMLMNAIDLFRYR | -2.11
48 | HMKVSDLIGMLGRVTGELAPTGIVLVGNKTWTAISEDASVIASGEQVQVRSVAGLILTVSHQVD | -2.15
49 | HMNDTSLIIDNLMLKLGNNIKNFSEIYSLLRKNLAEYGEEFIKSKVDYVLKNFNDNIEENLKKLLTE | -0.218
50 | HMFTEEEMTKLRHELILAGIRLSRELGLQRMSVEKITSAVGIAKGSFYIFFDSKEDFILEIADHANRE | -1.06
51 | HMAFRIGGFVQEGSVVRQQDGGTVRFEVTDTAHSVPVTYKGSLPDLFKEGKGVVAQGKLMNGTFVADQVLA | -0.0129
52 | HMLVTQSITVPMAMSGIRLDAALAMLFPDHSRNRLKAWLDDGHILVDGAVWAGKQRLEGNEEITATLPEAK | -0.207
53 | HMELEFLTEKQKEALILAVNRGYYDVDSEVTLKRLADELGIARSTYGEHLKRAESEALKMVVSDLLRD | -0.382
54 | HMVYLPSSIKNIPTKYGEMMVANFKMDELQANSKNGWVSMVISERREPSEKGATHYAYVNTY | 0.432
55 | HMFNDGEIAIYTDPRGDAGETQIWKRGKGYYGQNDSFDFEAKDKKELEMKLKRWGYVLIAGSIDE | -0.291

Source: the domain aggregation screens of Martell et al. (2025)
